Experimental findings from patent publication US20260055202A1 (TEXAS A AND M UNIVERSITY SYSTEM, published 2026) are described below.

In assay [1] the target is T1, human CD20 on Raji B lymphoma cells (human, UniProt P11836 1-297).
T1 construct: whole, on cells; also called hCD20
T1 sequence (looked up): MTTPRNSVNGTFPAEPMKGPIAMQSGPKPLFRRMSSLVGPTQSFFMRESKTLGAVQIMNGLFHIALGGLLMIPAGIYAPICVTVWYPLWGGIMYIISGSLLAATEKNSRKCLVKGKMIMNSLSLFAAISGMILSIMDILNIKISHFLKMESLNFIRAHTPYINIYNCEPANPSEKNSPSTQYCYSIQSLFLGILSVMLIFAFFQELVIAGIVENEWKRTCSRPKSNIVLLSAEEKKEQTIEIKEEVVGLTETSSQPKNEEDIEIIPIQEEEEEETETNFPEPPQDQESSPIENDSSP
The assay can be described thus: flow cytometry on Raji cells, indirect immunofluorescence (Atto 488-labeled anti-human Fc secondary Ab), median fluorescence intensity. Here is the method: Median fluorescence intensities (MFIs) from histograms calculated using FlowJo software were used to generate the binding curves in FIG. 8. The identity and concentration of the Ab and calculated MFI is shown in the insets of histograms.
(§1) Binding of anti-hCD20 mAbs to Raji cells: Anti-hCD20 Abs diluted in DPBS/1% bovine serum albumin (BSA) were incubated with 6×10⁵ Raji cells in V-bottom 96-well plates at 4° C. for 1 hour in a final volume of […]. […] Binding of mAbs to live single cells gated by light scatter characteristics was measured using a BD LSRFortessa X-20 flow cytometer. The binding of bacteriophage displaying the Fab portions of the chicken Abs to hCD20-transfected Chinese hamster ovary (CHO) cells was also measured (FIG. 4).

The target of assay [2] is T1, human CD20 on Raji B lymphoma cells. The assay is described as follows: flow cytometry on Raji cells, direct immunofluorescence with A488-labeled Ab, MFI against concentration, 5PL fit [panel A]. Here is the method:
Raji cells were incubated with A488-labeled anti-hCD20 Abs followed by washing and flow cytometric analysis using a BD LSRFortessa X-20 instrument. The median fluorescence intensities (MFIs) of Ab-coated cells were determined using FlowJo software and fitted to an asymmetric sigmoidal 5PL curve using GraphPad Prism. Data are the mean±SD of duplicate measurements and are from one of two independent, representative experiments.

For assay [3] the target is unchanged. The assay can be described thus: cell-based or functional assay.
For assay [4], the target named is T2, mouse CD20 on transfected HEK293T cells (mouse, UniProt P19437 1-291).
T2 construct: whole, on cells; Expressed from pCMV5 mCD20 in HEK293T cells; also called mCD20; MS4A1
T2 sequence (looked up): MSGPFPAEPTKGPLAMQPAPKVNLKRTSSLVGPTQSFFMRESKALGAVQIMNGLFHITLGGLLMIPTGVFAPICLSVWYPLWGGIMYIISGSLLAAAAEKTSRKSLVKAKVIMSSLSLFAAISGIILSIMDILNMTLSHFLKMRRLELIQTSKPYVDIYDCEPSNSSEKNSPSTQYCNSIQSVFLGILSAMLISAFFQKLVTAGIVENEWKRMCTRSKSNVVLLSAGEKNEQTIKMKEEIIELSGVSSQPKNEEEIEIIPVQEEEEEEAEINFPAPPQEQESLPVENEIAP
The assay is described as follows: flow cytometry with Atto 488-labeled Ab on HEK293T cells transfected with pCMV5-mCD20 versus pCMV5 (mock). As for the experimental part:
The identity of the Abs is indicated at the top. Anti-mCD20: commercially obtained anti-mCD20 Ab (eBioscience/Thermo Fisher). Data are from one of two independent, representative experiments.
Cross-reactivity of anti-hCD20 mAbs with mouse CD20: HEK293T cells in P100 tissue culture dishes were transfected at 70-90% confluency with […] pCMV5 mCD20 expression plasmid or parental pCMV5 (mock transfection) using jetOPTIMUS (Polyplus-transfection) reagent per the manufacturer's recommended protocol at a 1:1 jetOPTIMUS:DNA (L: g) ratio. Two days post transfection, the supernatant on the transfected cells was aspirated and the cells dislodged by vigorous pipetting with DPBS (HyClone). The cells were pelleted by centrifugation and the buffer replaced with 8 mL chilled blocking buffer (DPBS/10% FBS). The cells were blocked with gentle rocking at 4° C. for 30 minutes. […] of the blocked cells were transferred to individual wells of a conical-bottom 96-well plate and the cells were pelleted by centrifugation prior to incubation with […] of […] A488-labeled anti-hCD20 Abs or […] A488-labeled anti-mouse CD20 Ab (eBioscience/Thermo Fisher) at 4° C. with rocking for 1 hour. The Ab-coated cells were washed three times with cold DPBS/1% BSA and resuspended in […] DPBS/1% BSA prior to flow cytometric analysis in the FITC channel using a BD LSRFortessa X-20 cytometer. Histogram plots were generated with Flowing Software v2.5.1 (University of Turku).

Assay [5] deals with T1, human CD20 on Raji B lymphoma cells. The assay is described as follows: flow cytometry on Raji cells, indirect immunofluorescence (Atto 488-labeled anti-human Fc secondary Ab), MFI against concentration, 5PL fit. As for the experimental part: The median fluorescence intensity (MFI) of Ab-coated cells was determined using FlowJo software. Data for the lowest mAb concentration derives from cells incubated with just buffer (no Ab). […] Values are the mean±SD of duplicate measurements.
as §1

Assay [6] has the same target. The assay is described as follows: flow cytometry on Raji cells (binding/hCD20 receptor occupancy), A488-labeled secondary anti-human IgG Fcγ Ab, MFI against concentration, 5PL fit. Here is the method:
The experiment was carried out by detection of bound unlabeled anti-hCD20 Abs using A488-labeled secondary anti-human IgG Fcγ Ab. Median fluorescence values from flow cytometry were obtained using FlowJo software. EC₅₀ values were generated from an asymmetric sigmoidal 5PL fit using GraphPad Prism. Data are from one of two independent, representative experiments. […] All statistical analyses were by unpaired t test.

B1: AC11 (chicken-derived anti-hCD20 mAb, chicken-human chimeric) (antibody, human IgG1, V domains shown)
VH: AVTLDESGGGLQTPGGALSLVCKASGFDFSSSYINWVRQAPGKGLEYVAQINKDGGGSWYAPVVKGRATISRDNGQSTVRLQLSNLRAEDTGIYFCAKNADSGCVGVGGCIDTWGHGTEVIVSS
VL: ALTQPSSVSANPGETVKITCSGGSYYYGGNYYYGWYQQKSPGSAPVTLIYNNNKRPSDIPSRFSGSTSGSTGTLTITGVQADDEAVYYCGGYDSSYVAIFGAGTTLTVL
modifications: Atto 488 NHS-ester label on lysines in the direct immunofluorescence and mCD20 assays (positions not defined)
notes: Chicken VH fused to human CH1 and CH2-CH3 of human IgG1; chicken VL fused to human kappa constant domain; made in Expi293F cells; also called chAC11; parental AC11
Turning to B1, in assay [1], the “MFI at 16.7 µg/mL” value amounted to 19000. This molecule also yielded an EC50 in assay [2] of 5.7 µg/mL. Also, in assay [3], the “ADCC signaling, ADCC reporter bioassay (FcgRIIIa V158 Jurkat pseudoeffector cells, Raji targets; fold over Rituximab)” value was > 100 fold relative to Rituximab and the “target cell lysis, PBMC ADCC bioassay on Raji cells (fold over Rituximab)” value (from here on “target cell lysis … (fold over Rituximab)”) was ~10 fold relative to Rituximab. Further, in assay [4], the binding result was “no binding”. This molecule registered an EC50 in assay [5] of 3.2 µg/mL.

B2: Rituximab (antibody, V domains shown)
VH: QVQLQQPGAELVKPGASVKMSCKASGYTFTSYNMHWVKQTPGRGLEWIGAIYPGNGDTSYNQKFKGKATLTADKSSSTAYMQLSSLTSEDSAVYYCARSTYYGGDWYFNVWGAGTTVTVSA
VL: QIVLSQSPAILSASPGEKVTMTCRASSSVSYIHWFQQKPGSSPKPWIYATSNLASGVPVRFSGSGSGTSYSLTISRVEAEDAATYYCQQWTSNPPTFGGGTKLEIK
In the case of B2, the “MFI at 16.7 µg/mL” value in assay [1] came out at 14000. For the same molecule, the EC50 in assay [2] worked out at 5.6 µg/mL; in assay [5] it was 4.5 µg/mL; in assay [6], 4.5 µg/mL.

B3: hAC11-10 (humanized variant of mAb AC11) (antibody, V domains shown)
VH: EVQLVESGGGLVQPGGSLRLSCKASGFTFSSSYINWVRQAPGKGLEYVAQINKDGGGSWYAPVVKGRFTISRDNAKNTVYLQMNSLRAEDTAVYYCAKNADSGCVGVGGCIDTWGQGTTVTVSS
VL: SYELTQPSSVSVSPGQTVRITCSGGSYYYGGNYYYGWYQQKPGQAPVTVIYNNNKRPSGIPERFSGSNSGNTGTLTISGVQAEDEADYYCGGYDSSYVAIFGGGTKLTVL
notes: Humanized variable regions; constant regions not restated for this variant (the parental format is human IgG1 with a human kappa constant domain)
B3 showed an EC50 in assay [6] of 3.5 µg/mL.

B4: AC1 (chicken-derived anti-hCD20 mAb, chicken-human chimeric) (antibody, human IgG1, V domains shown)
VH: AVTLDESGGGLQTPGGGLSLVCKASGFDFSSYAMVWVRQAPGKGLEYVGEITNYAAGSGTWYGAAVKGRATISRDNGQSTVRLQLNNLRAEDTATYYCAKGPISGSIGYLSSIDAWGHGTEVIVSS
VL: ALTQPSSVSANPGETVKITCSGGSSRYGYGWYQQKSPGSAPVTVIYWNDKRPSDIPSRFSGSKSGSTGTLTITGVRAEDEAVYYCGNYDNNDPAFGAGTTLTVL
modifications: Atto 488 NHS-ester label on lysines in the direct immunofluorescence and mCD20 assays (positions not defined)
notes: Chicken VH fused to human CH1 and CH2-CH3 of human IgG1; chicken VL fused to human kappa constant domain; made in Expi293F cells; also called chAC1
Regarding B4, the “MFI at 16.7 µg/mL” value in assay [1] was found to be 20000. This molecule came in with an EC50 in assay [2] of 2.5 µg/mL. For the same molecule, in assay [3], the “ADCC signaling, ADCC reporter bioassay (FcgRIIIa V158 Jurkat pseudoeffector cells, Raji targets; fold over Rituximab)” value is > 100 fold relative to Rituximab and the “target cell lysis … (fold over Rituximab)” value is ~10 fold relative to Rituximab. The EC50 in assay [5] came to 1.8 µg/mL.

B5: ACR8 (chicken-derived anti-hCD20 mAb, chicken-human chimeric) (antibody, human IgG1, V domains shown)
VH: AVTLDESGGGLQTPGGALSLVCKASGFSFDRHGMFWVRQAPGKGLEWVAGIRSTGSYPKYGPAVKGRATISRDNGQSTVRLQLNNLRAEDTARYFCVRNVYIGDYDGDSIDAWGHGTEVIVSS
VL: ALTQPSSVSANLGGTVEITCSGSSSGYGSYYGWYQQKSPGSAPVTVIYENTNRPSNIPSRFSGSESGSTATLTITGVQAEDEAVYFCGSADDSGNSAIFGAGTTLTVL
modifications: Atto 488 NHS-ester label on lysines in the direct immunofluorescence and mCD20 assays (positions not defined)
notes: Chicken VH fused to human CH1 and CH2-CH3 of human IgG1; chicken VL fused to human kappa constant domain; made in Expi293F cells; also called chACR8
Take B5: the “MFI at 16.7 µg/mL” value in assay [1] is 21000. The EC50 in assay [2] and in assay [5] was 2 µg/mL each time. The “ADCC signaling, ADCC reporter bioassay (FcgRIIIa V158 Jurkat pseudoeffector cells, Raji targets; fold over Rituximab)” value in assay [3] was > 100 fold relative to Rituximab. The “target cell lysis … (fold over Rituximab)” value in assay [3] was ~10 fold relative to Rituximab. The binding result in assay [4] is “no binding”.

B6: ACR7 (chicken-derived anti-hCD20 mAb, chicken-human chimeric) (antibody, human IgG1, V domains shown)
VH: AVTLDESGGGLQTPGGALSLVCKASGFTFNSNGMGWVRQAPGKGLEWVAGIHSSGRYTYYGTAVKGRATISRDNGQSTVRLQLNDLRAEDTATYYCAKNADSAYGYWYAGSIDAWGHGTEVIVSS
VL: ALTQPSSVSANLGGTVEITCSGGYSSYGYSWHQQKSPASAPVTLIYNNNNRPSDIPSRFSGSASGSTATLTITGVQAEDEAVYYCAFTDYSSLAGVFGAGTTLTVL
modifications: Atto 488 NHS-ester label on lysines in the direct immunofluorescence and mCD20 assays (positions not defined)
notes: Chicken VH fused to human CH1 and CH2-CH3 of human IgG1; chicken VL fused to human kappa constant domain; made in Expi293F cells; also called chACR7
As to B6, in assay [1], the “MFI at 16.7 µg/mL” value is 18000. The molecule also yielded an EC50 in assay [2] of 7.3 µg/mL. In assay [3], the “ADCC signaling, ADCC reporter bioassay (FcgRIIIa V158 Jurkat pseudoeffector cells, Raji targets; fold over Rituximab)” value was > 100 fold relative to Rituximab and the “target cell lysis … (fold over Rituximab)” value is ~10 fold relative to Rituximab. Also, the binding result in assay [4] is listed as “no binding”. The molecule also yielded an EC50 in assay [5] of 5.9 µg/mL.
